Reference: patent publication US20220340666A1 (NEW YORK UNIVERSITY, published 2022)
Where a chain is given by its changes, count along the chain named. Read-outs that look alike come from different tables or passages of the source. Values belong to the binder of their own block, whether it stands above or below them.

Tests used:
[1] = molecular target: T1, human Galectin-9 CRD2 (residues 218-355), biotinylated (human, UniProt O00182 218-355, biotinylated in vitro with BirA (Avitag)); assay: phage ELISA, phage-displayed Fab; also on CRD2 pre-incubated with G9.2-17 IgG
T1 construct: also called wild type human Galectin-9 CRD2; not shown: hexahistidine tag, Avitag and TEV cleavage site upstream of the cloned gene (pHBT vector)
Method: (§1) FIG. 13 is a graph showing a binding characterization of G9.2 Fab clone for wild-type Galectin-9 CRD2 or the […] mutant using phage ELISA. Binding of Fab clones to human Galectin-9 CRD2 assayed using phage ELISA.
(§2) Potential additional epitopes were explored using additional clones that bind to Galectin-9 CRD2. A phage display library selection using a modified scheme so as to enrich clones that bind to an epitope that is distinct from that of G9.2-17 was performed.

[2] = molecular target: T2, human Galectin-9 CRD2 W309K mutant, biotinylated (human, UniProt O00182 218-355, biotinylated (Avitag)); assay: phage ELISA, phage-displayed Fab
T2 construct: also called W309K Galectin-9 CRD2 mutant; not shown: tags of the pHBT vector as for wild-type CRD2
Method: as §1, §2

[3] = molecular target: T3, human Galectin-9 CRD1 (residues 1-148), biotinylated (human, UniProt O00182 1-148, biotinylated in vitro with BirA (Avitag)); assay: bead-based binding assay, flow cytometry
T3 construct: Made as GST fusion, GST cleaved off with thrombin, gel filtered, biotinylated; not shown: Avitag upstream of the cloned gene (pGEX vector), left after thrombin cleavage from GST
Method: (§3) The affinities of the antibodies were assessed using a bead-based assay as previously described (Nishikori et al., J Mol Biol, 2012, 424, 391-399) and surface plasmon resonance (SPR). In the bead-based assay, a biotinylated protein (either a Galectin-9 sample or a Fab sample) was immobilized on streptavidin-coated Dynabeads M280 via the biotin-streptavidin interaction. After blocking the excess biotin-binding sites on the beads using unconjugated biotin, binding titration was performed by incubating the second component (i.e., Fab for immobilized Galectin-9 or vice versa), followed by quantification using a dye-labeled neutravidin (ThermoFisher) and flow cytometry analysis. In experiments where the second component is an IgG, a dye-labeled anti-human IgG or anti-mouse IgG antibody was used for detection.

[4] = molecular target: T3, human Galectin-9 CRD1 (residues 1-148), …; assay: bead-based binding assay, flow cytometry; remark: listed apart in the source
Method: as §3

[5] = molecular target: T3, human Galectin-9 CRD1 (residues 1-148), …; assay: bead-based binding assay, flow cytometry; remark: listed apart in the source
Method: as §3

[6] = molecular target: T3, human Galectin-9 CRD1 (residues 1-148), …; assay: phage ELISA, phage-displayed Fab on biotinylated CRD
[7] = molecular target: T1, human Galectin-9 CRD2 (residues …); assay: bead-based binding assay
[8] = molecular target: T1, human Galectin-9 CRD2 (residues …); assay: phage ELISA, phage-displayed Fab
Method: as §1, §2

[9] = molecular target: T3, human Galectin-9 CRD1 (residues 1-148), …; assay: bead-based binding assay, purified Fab (FIG. 5)
Method: as §3

[10] = molecular target: T1, human Galectin-9 CRD2 (residues …); assay: SPR, Fab over CRD2 on Avicap chip (OneStep)
Source text: FIG. 12 contains charts showing surface plasmon resonance analyses of Fab G9.2-17 (top) and Fab G9.2.17mut6 (bottom) binding to the CRD2 of human (left) and mouse (right) Galectin-9. Human or mouse Galectin-9 CRD2 was immobilized on an Avicap chip preloaded with neutravidin on a Pall ForteBio Pioneer instrument. Fab samples were then flowed using the OneStep method. The binding and dissociation phases of the experiments are marked in the top panels.
In SPR experiments, a biotinylated Galectin-9 sample was immobilized on an Avicap chip (Pall ForteBio) that had been preloaded with neutravidin (ThermoFisher). Antibody samples were flowed using the OneStep method on a Pioneer SPR instrument (Pall ForteBio) and the results are provided in FIG. 6.

T3 sequence (O00182 1-148): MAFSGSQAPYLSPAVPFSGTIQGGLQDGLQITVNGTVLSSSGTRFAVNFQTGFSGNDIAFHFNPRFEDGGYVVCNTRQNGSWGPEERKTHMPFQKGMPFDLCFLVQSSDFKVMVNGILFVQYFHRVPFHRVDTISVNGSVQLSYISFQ
T1 sequence (O00182 218-355 limits assumed): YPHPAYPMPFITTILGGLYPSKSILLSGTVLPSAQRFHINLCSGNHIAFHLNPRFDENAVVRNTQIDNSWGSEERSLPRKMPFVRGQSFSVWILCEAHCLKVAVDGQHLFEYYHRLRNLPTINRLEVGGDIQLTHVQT
T2 sequence (O00182 218-355 W309K): as the sequence (O00182 218-355 limits assumed) above, with W92K counted along it

B1: G9.2-25 Fab (Fab, V domains shown)
VH: EVQLVESGGGLVQPGGSLRLSCAASGFTLSSSSIHWVRQAPGKGLEWVASIYSSYGSTSYADSVKGRFTISADTSKNTAYLQMNSLRAEDTAVYYCARQYYTYFEWYMGWGYALDYWGQGTLVTVSS
VL: DIQMTQSPSSLSASVGDRVTITCRASQSVSSAVAWYQQKPGKAPKLLIYSASSLYSGVPSRFSGSRSGTDFTLTISSLQPEDFATYYCQQSYVYYPFTFGQGTKVEIKR
- binding result [1]: binds
- binding result [2]: binds

B2: G9.2-26 Fab (Fab, V domains shown)
VH: EVQLVESGGGLVQPGGSLRLSCAASGFTVSSSSIHWVRQAPGKGLEWVAYISSYSGSTYYADSVKGRFTISADTSKNTAYLQMNSLRAEDTAVYYCARSSALYWMDFSYSALDYWGQGTLVTVSS
VL: DIQMTQSPSSLSASVGDRVTITCRASQSVSSAVAWYQQKPGKAPKLLIYSASSLYSGVPSRFSGSRSGTDFTLTISSLQPEDFATYYCQQGGWYYGPITFGQGTKVEIKR
- binding result [1]: binds
- binding result [2]: binds

B3: G9.1-8 Fab (Fab, V domains shown)
VH: EVQLVESGGGLVQPGGSLRLSCAASGFTVSSSSIHWVRQAPGKGLEWVAYIYPYSGYTSYADSVKGRFTISADTSKNTAYLQMNSLRAEDTAVYYCARYSTYSWGGIGKWVWGMDYWGQGTLVTVSS
VL: B2 VL with G91S, G92Y, W93Y, Y94D, Y95S, G96N
notes: Avitag at the C-terminus of the heavy chain, biotinylated when required; also called G9.1-8 WT Fab
- Kd [3]: 0.45 nM
- Kd [4]: 2.13 nM

B4: G9.1-8 WT mIgG1 (antibody, V domains shown)
VH: B3 VH
VL: B2 VL with G91S, G92Y, W93Y, Y94D, Y95S, G96N
- Kd [3]: 2.4 nM
- Kd [5]: 0.63 nM

B5: G9.1-5 Fab (Fab, V domains shown)
VH: EVQLVESGGGLVQPGGSLRLSCAASGFTIYYSSIHWVRQAPGKGLEWVASISSSYGSTYYADSVKGRFTISADTSKNTAYLQMNSLRAEDTAVYYCARSVSWYPYYYYYGYGSGLDYWGQGTLVTVSS
VL: B2 VL with G91Y, G92Y, W93G, Y94W, Y95F, G96Y, I98V
notes: Avitag at the C-terminus of the heavy chain, biotinylated when required
- binding result [6]: binds

B8: G9.1-8m12 Fab (Fab, V domains shown)
VH: EVQLVESGGGLVQPGGSLRLSCAASGFTVSSSSIHWVRQAPGKGLEWVAYIYPYSSSSSYADSVKGRFTISADTSKNTAYLQMNSLRAEDTAVYYCARYSTYSSSKWVWGMDYWGQGTLVTVSS
VL: B2 VL with G91S, G92Y, W93Y, Y94D, Y95S, G96N
notes: Purified Fab; also called G9.1-8mut12
- Kd [4]: 2.48 nM

B9: G9.1-8m14 Fab (Fab, V domains shown)
VH: EVQLVESGGGLVQPGGSLRLSCAASGFTVSSSSIHWVRQAPGKGLEWVAYIYPYSSSSSYADSVKGRFTISADTSKNTAYLQMNSLRAEDTAVYYCARYSTYKWVWGMDYWGQGTLVTVSS
VL: B2 VL with G91S, G92Y, W93Y, Y94D, Y95S, G96N
notes: Purified Fab; also called G9.1-8mut14
- Kd [4]: 58.5 nM

B13: G9.1-8m13 Fab (Fab, V domains shown)
VH: EVQLVESGGGLVQPGGSLRLSCAASGFTVSSSSIHWVRQAPGKGLEWVAYIYPYSSSSSYADSVKGRFTISADTSKNTAYLQMNSLRAEDTAVYYCARYSTYSSKWVWGMDYWGQGTLVTVSS
VL: B2 VL with G91S, G92Y, W93Y, Y94D, Y95S, G96N
notes: Purified Fab; also called G9.1-8mut13
- Kd [4]: 20.7 nM

B15: G9.2-17 Fab (Fab, V domains shown)
VH: EVQLVESGGGLVQPGGSLRLSCAASGFTVSSSSIHWVRQAPGKGLEWVAYISSSSGYTYYADSVKGRFTISADTSKNTAYLQMNSLRAEDTAVYYCARYWSYPSWWPYRGMDYWGQGTLVTVSS
VL: DIQMTQSPSSLSASVGDRVTITCRASQSVSSAVAWYQQKPGKAPKLLIYSASSLYSGVPSRFSGSRSGTDFTLTISSLQPEDFATYYCQQSSTDPITFGQGTKVEIKR
notes: Avitag at the C-terminus of the heavy chain, biotinylated when required; also called Fab G9.2-17
- binding result [8]: binds

Second part, the binder after the results:

- binding result [6]: binds
B6: G9.1-9 Fab (Fab, V domains shown)
VH: EVQLVESGGGLVQPGGSLRLSCAASGFTVSSSSIHWVRQAPGKGLEWVAYIYSSSGYTSYADSVKGRFTISADTSKNTAYLQMNSLRAEDTAVYYCARYSSYHYPYWLFAMDYWGQGTLVTVSS
VL: B2 VL with G91S, G92Y, W93F, Y94H, Y95K, G96I

- binding result [6]: binds
B7: G9.1-7 Fab (Fab, V domains shown)
VH: EVQLVESGGGLVQPGGSLRLSCAASGFTVSSSSIHWVRQAPGKGLEWVASISSYYGYTYYADSVKGRFTISADTSKNTAYLQMNSLRAEDTAVYYCARSYSYGYDYFVKYYTMDYWGQGTLVTVSS
VL: B2 VL with G91Y, G92P, W93G, Y95R, P97L

- binding result [7]: no binding
- Kd [5]: 0.32 nM
B10: G9.1-8m12 mIgG2a (antibody, V domains shown)
VH: B8 VH
VL: B2 VL with G91S, G92Y, W93Y, Y94D, Y95S, G96N
notes: also called G9.1-8mut12

- binding result [7]: no binding
- Kd [5]: 2.01 nM
B11: G9.1-8m14 mIgG2a (antibody, V domains shown)
VH: B9 VH
VL: B2 VL with G91S, G92Y, W93Y, Y94D, Y95S, G96N
notes: also called G9.1-8mut14

- binding result [7]: no binding
- Kd [5]: 0.3 nM
B12: G9.1-8m13 mIgG2a (antibody, V domains shown)
VH: B13 VH
VL: B2 VL with G91S, G92Y, W93Y, Y94D, Y95S, G96N
notes: also called G9.1-8mut13

- binding result [8]: binds
B14: G9.2-15 Fab (Fab, V domains shown)
VH: EVQLVESGGGLVQPGGSLRLSCAASGFTVSSSSIHWVRQAPGKGLEWVASIYSSSGYTSYADSVKGRFTISADTSKNTAYLQMNSLRAEDTAVYYCARNVENYPYWAWPWGYYGAIDYWGQGTLVTVSS
VL: B15 VL with T93W, D94G, P95L
notes: Avitag at the C-terminus of the heavy chain, biotinylated when required; also called Fab G9.2-15

- binding result [9]: binds
B16: G9.1-6 Fab (Fab, V domains shown)
VH: EVQLVESGGGLVQPGGSLRLSCAASGFTLSSSSIHWVRQAPGKGLEWVASIYSSYGSTSYADSVKGRFTISADTSKNTAYLQMNSLRAEDTAVYYCARSSHWYMYWSYWGWYIGMDYWGQGTLVTVSS
VL: B15 VL with S91Y, S92H, T93S, D94S, P95L, I96F
notes: as for B5

- binding result [1]: binds
- binding result [2]: binds
B17: G9.2-24 Fab (Fab, V domains shown)
VH: EVQLVESGGGLVQPGGSLRLSCAASGFTVYSSSIHWVRQAPGKGLEWVASIYSSYGYTSYADSVKGRFTISADTSKNTAYLQMNSLRAEDTAVYYCARSYSSETHYGWAMDYWGQGTLVTVSS
VL: B15 VL with S91W, T93Q, D94S, I96V

- binding result [10]: binds
B18: G9.2-17mut6 Fab (Fab, V domains shown)
VH: B15 VH with W106S
VL: B15 VL
notes: Purified Fab; point mutant of G9.2-17 in CDR-H3; also called Fab G9.2-17mut6; G9.2-17m6
